Numbering of substitutions follows the chain as printed. Names and notes keep the numbering of the source.
Molecular target: the molecule itself
Experiment: mass photometry; self-association, monomers to hexamer; 8.7 nM gp4 (hexamer concentration) in 40 mM Tris-HCl pH 7.5, 150 mM KCl, 10 mM MgCl2, 25 °C, 15 min, with 10 nM 50-nt ssDNA and 1 mM [β,γ-CH2] dTTP; Refeyn OneMP

B1: bacteriophage T7 primase-helicase gp4, wild type (63 kDa form) (enzyme, UniProt P03692 1-566, looked up)
chain: MDNSHDSDSVFLYHIPCDNCGSSDGNSLFSDGHTFCYVCEKWTAGNEDTKERASKRKPSGGKPMTYNVWNFGESNGRYSALTARGISKETCQKAGYWIAKVDGVMYQVADYRDQNGNIVSQKVRDKDKNFKTTGSHKSDALFGKHLWNGGKKIVVTEGEIDMLTVMELQDCKYPVVSLGHGASAAKKTCAANYEYFDQFEQIILMFDMDEAGRKAVEEAAQVLPAGKVRVAVLPCKDANECHLNGHDREIMEQVWNAGPWIPDGVVSALSLRERIREHLSSEESVGLLFSGCTGINDKTLGARGGEVIMVTSGSGMGKSTFVRQQALQWGTAMGKKVGLAMLEESVEETAEDLIGLHNRVRLRQSDSLKREIIENGKFDQWFDELFGNDTFHLYDSFAEAETDRLLAKLAYMRSGLGCDVIILDHISIVVSASGESDERKMIDNLMTKLKGFAKSTGVVLVVICHLKNPDKGKAHEEGRPVSITDLRGSGALRQLSDTIIALERNQQGDMPNLVLVRILKCRFTGDTGIAGYMEYNKETGWLEPSSYSGEEESHSESTDWSNDTDF
notes: bacteriophage T7 gene 4 primase-helicase, full-length 63 kDa form (residues 1-566); also called WT gp4; gp4A
stoichiometry N: 6

B2: bacteriophage T7 primase-helicase gp4 Y111A (63 kDa form) (enzyme, UniProt P03692 1-566, looked up)
chain: B1 chain with Y111A
notes: bacteriophage T7 gene 4 primase-helicase, 63 kDa form (residues 1-566), with Y111A made by site-directed mutagenesis on pET28-gp4A; also called Y111A gp4; gp4-Y11A [sic]
stoichiometry N: 6
